The values that follow come from paper doi:10.1101/2025.08.21.671446 (bioRxiv, 2025).

Where “and” joins values, the source holds several entries; their conditions need not be identical. Equal values may be shown once. Read-outs that look alike come from different tables or passages of the source.

Series [1] has as its target T1, MoyR (Mycobacterium tuberculosis H37Rv, UniProt O86331 1-269).
T1 sequence: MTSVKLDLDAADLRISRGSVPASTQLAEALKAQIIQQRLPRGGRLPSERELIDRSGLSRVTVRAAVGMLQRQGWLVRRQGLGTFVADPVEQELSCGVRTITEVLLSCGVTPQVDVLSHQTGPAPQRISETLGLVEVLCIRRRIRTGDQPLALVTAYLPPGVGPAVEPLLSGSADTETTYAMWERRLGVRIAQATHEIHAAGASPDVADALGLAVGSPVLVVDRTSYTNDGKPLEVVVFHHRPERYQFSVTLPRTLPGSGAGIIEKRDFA
In words: EMSA. (In general: Mobility shift assays separate free from complexed probe on a gel.)

Series [2] has as its target T1, MoyR. Briefly: EMSA. This is another data set of the same source.
Series [3] deals with the molecule itself. Briefly: SEC. (In general: Size exclusion chromatography separates by hydrodynamic size, large species first.)
Series [4] concerns the molecule itself. In words: SEC. The source holds these as a separate data set.
For series [5], the target named is T1, MoyR. Briefly: EMSA. This is another data set of the same source.

B1: moyOf1 (47 bp) (dsDNA)
DNA 1: AGCTTGACAGATGTCATAAGACGTATTAAAACGTCTTATACTCACCA
DNA 2: TGGTGAGTATAAGACGTTTTAATACGTCTTATGACATCTGTCAAGCT
What is called Kd is the constant that tells how readily two partners part at equilibrium. Turning to B1, the Kd with MoyR [1] stood at 16.6 nM.

B2: moyOf6 (20 bp) (dsDNA)
DNA 1: AGCTTGACAGATGTCATAAG
DNA 2: CTTATGACATCTGTCAAGCT
In the case of B2, the binding result with MoyR [2] is “no binding”.

B3: MoyR (Rv0792c), GntR family (HutC subfamily) monooxygenase regulator of Mycobacterium tuberculosis (natural protein)
chain: MTSVKLDLDAADLRISRGSVPASTQLAEALKAQIIQQRLPRGGRLPSERELIDRSGLSRVTVRAAVGMLQRQGWLVRRQGLGTFVADPVEQELSCGVRTITEVLLSCGVTPQVDVLSHQTGPAPQRISETLGLVEVLCIRRRIRTGDQPLALVTAYLPPGVGPAVEPLLSGSADTETTYAMWERRLGVRIAQATHEIHAAGASPDVADALGLAVGSPVLVVDRTSYTNDGKPLEVVVFHHRPERYQFSVTLPRTLPGSGAGIIEKRDFA
One may read the stoichiometry N as a count of units in the complex or per binding partner. Regarding B3, the “stoichiometry N” value in “SEC [3]” is 4 and 6; in “SEC [4]” it was 2.

B4: moyOf4 (dsDNA)
DNA 1: TAGCAGCGGAAGAAGGTCA
DNA 2: TGACCTTCTTCCGCTGCTA
In the case of B4, in the series with MoyR [5], the binding result is given as “no binding”.
